Reference: the supplement of paper PMC9732359
± gives the uncertainty stated by the source.

Test: protein stability index of a GFP-peptide fusion (yeast GPS) (PSI 1-4); higher = more stable; sorted into four equal gates, so the index is relative within each strain
Outline: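 The protein stability index of a peptide was calculated by multiplying its read frequency in each gate by that gate's number and adding the products. The peptides were tiled 17-residue stretches of yeast proteins, fused downstream of GFP on a Cherry-expressing plasmid and carried in yeast as a pooled library. Mid-log cultures in leucine-free medium were sorted into four equal gates by GFP/Cherry ratio, and each gate's plasmids were PCR-amplified and Illumina-sequenced.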

## NLLHSYMEKGTQLDDLQ [YML103C/NUP188]
doa10∆
  protein stability index: 2.63 ± 0.056
pdr5∆
  protein stability index: 2.49 ± 0.053
san1∆
  protein stability index: 2.35 ± 0.052
ubr1∆
  protein stability index: 2.32 ± 0.034

## VEMAWIMGFISYHNGNL [FAS2]
doa10∆
  protein stability index: 2.67 ± 0.14
pdr5∆
  protein stability index: 3.2 ± 0.1
san1∆
  protein stability index: 3.29 ± 0.063
ubr1∆
  protein stability index: 3.06 ± 0.12

## FTNVPLNLEQVTLNKYC [YJL039C/NUP192]
doa10∆
  protein stability index: 1.99 ± 0.047
pdr5∆
  protein stability index: 1.99 ± 0.045
san1∆
  protein stability index: 1.92 ± 0.077
ubr1∆
  protein stability index: 2.14 ± 0.045

## TEQQIEVPEGVTVSIKS [RPL9A]
doa10∆
  protein stability index: 2.46 ± 0.069
pdr5∆
  protein stability index: 2.3 ± 0.051
san1∆
  protein stability index: 1.99 ± 0.073
ubr1∆
  protein stability index: 2.85 ± 0.043

## MSHRKYEAPRHGHLGFL [RPL3]
pdr5∆
  protein stability index: 3.15 ± 0.19
san1∆
  protein stability index: 2.9 ± 0.099
ubr1∆
  protein stability index: 2.94 ± 0.23

## SYIGTIIVKDKSNDSEG [POP1]
doa10∆
  protein stability index: 1.4 ± 0.1
pdr5∆
  protein stability index: 1.44 ± 0.052
san1∆
  protein stability index: 1.45 ± 0.093
ubr1∆
  protein stability index: 1.35 ± 0.093

## PAMAMEDLKNFIFQIIE [SRB8]
doa10∆
  protein stability index: 2.62 ± 0.065
pdr5∆
  protein stability index: 2.9 ± 0.074
san1∆
  protein stability index: 2.73 ± 0.078
ubr1∆
  protein stability index: 1.71 ± 0.05

## AYFLIIVPVISTIENVL [COB]
doa10∆
  protein stability index: 1.52 ± 0.057
pdr5∆
  protein stability index: 1.75 ± 0.045
san1∆
  protein stability index: 1.92 ± 0.059
ubr1∆
  protein stability index: 2.12 ± 0.07

## FEASCMEGQKLDDPVLN [YJR042W/NUP85]
doa10∆
  protein stability index: 1.83 ± 0.088
pdr5∆
  protein stability index: 1.76 ± 0.086
san1∆
  protein stability index: 1.45 ± 0.21
ubr1∆
  protein stability index: 1.53 ± 0.061

## FHSEPDRDENWIHVSCL [LIN1]
doa10∆
  protein stability index: 3.16 ± 0.075
pdr5∆
  protein stability index: 3.27 ± 0.054
san1∆
  protein stability index: 3.07 ± 0.045
ubr1∆
  protein stability index: 3.13 ± 0.039

## TNLSGGEKTLSSLALVF [SMC4]
doa10∆
  protein stability index: 3.34 ± 0.083
pdr5∆
  protein stability index: 3.2 ± 0.097
san1∆
  protein stability index: 3.04 ± 0.25
ubr1∆
  protein stability index: 3.37 ± 0.054

## KKYLKKNQLRDWIRFVS [RPL22A]
doa10∆
  protein stability index: 1.8 ± 0.06
pdr5∆
  protein stability index: 1.68 ± 0.062
san1∆
  protein stability index: 1.2 ± 0.14
ubr1∆
  protein stability index: 1.12 ± 0.09

## QEAVNSLKGYKIENSVQ [CSI1]
doa10∆
  protein stability index: 3.2 ± 0.13
pdr5∆
  protein stability index: 3.29 ± 0.079
san1∆
  protein stability index: 3.32 ± 0.051
ubr1∆
  protein stability index: 3.39 ± 0.073

## LSESDKKSKLISLYLLN [RPN12]
doa10∆
  protein stability index: 2.21 ± 0.17
pdr5∆
  protein stability index: 3 ± 0.1
san1∆
  protein stability index: 2.07 ± 0.21
ubr1∆
  protein stability index: 2.31 ± 0.063

## AVAGLTADAEILINTAR [PRE9]
doa10∆
  protein stability index: 2.98 ± 0.11
pdr5∆
  protein stability index: 3.02 ± 0.088
san1∆
  protein stability index: 3.07 ± 0.1
ubr1∆
  protein stability index: 3.09 ± 0.078

## SIRAEAVAASSTKTGTP [POP1]
doa10∆
  protein stability index: 3.48 ± 0.15
pdr5∆
  protein stability index: 3.21 ± 0.1
san1∆
  protein stability index: 3.08 ± 0.077
ubr1∆
  protein stability index: 2.9 ± 0.069

## ESEQELSLHTGFIENCN [MTR3]
doa10∆
  protein stability index: 2.62 ± 0.067
pdr5∆
  protein stability index: 2.99 ± 0.067
san1∆
  protein stability index: 2.88 ± 0.063
ubr1∆
  protein stability index: 2.93 ± 0.053

## SGDREVQRTMLELLNQL [RPT5]
doa10∆
  protein stability index: 3.28 ± 0.12
pdr5∆
  protein stability index: 2.73 ± 0.28
san1∆
  protein stability index: 3.12 ± 0.12
ubr1∆
  protein stability index: 3.21 ± 0.1

## EKQHENAVLELGTVQRE [SMC3]
pdr5∆
  protein stability index: 3.54 ± 0.26

## STLHMLGYTHIAINFTV [RPP1]
doa10∆
  protein stability index: 1.5 ± 0.041
pdr5∆
  protein stability index: 1.39 ± 0.037
san1∆
  protein stability index: 1.45 ± 0.067
ubr1∆
  protein stability index: 1.55 ± 0.041

## KDGEDIIFNYVPGPGTK [CSL4]
doa10∆
  protein stability index: 2.56 ± 0.17
pdr5∆
  protein stability index: 2.53 ± 0.11
san1∆
  protein stability index: 2.23 ± 0.14
ubr1∆
  protein stability index: 2.52 ± 0.29

## PSRKDCMEVASAFMKFS [BRR2]
doa10∆
  protein stability index: 2.4 ± 0.054
pdr5∆
  protein stability index: 2.78 ± 0.047
san1∆
  protein stability index: 2.83 ± 0.06
ubr1∆
  protein stability index: 2.68 ± 0.055

## QPSQQPQQAQQQPNPLH [GAL11]
doa10∆
  protein stability index: 2.91 ± 0.05
pdr5∆
  protein stability index: 2.95 ± 0.037
san1∆
  protein stability index: 2.85 ± 0.035
ubr1∆
  protein stability index: 2.97 ± 0.034

## PYYKYLCEEYLVNNGQS [RPN7]
doa10∆
  protein stability index: 2.86 ± 0.087
pdr5∆
  protein stability index: 2.41 ± 0.091
san1∆
  protein stability index: 2.61 ± 0.088
ubr1∆
  protein stability index: 1.77 ± 0.067

## RAEALNISGEFFRNKLK [RPL16B]
pdr5∆
  protein stability index: 2.4 ± 0.25
ubr1∆
  protein stability index: 2.9 ± 0.13

## LWDQDIAIAGTGQIEGL [COR1]
doa10∆
  protein stability index: 3.12 ± 0.089
pdr5∆
  protein stability index: 3.37 ± 0.077
san1∆
  protein stability index: 3.05 ± 0.055
ubr1∆
  protein stability index: 2.98 ± 0.05

## RNRDIALFQPPNFDWDL [ROX3]
doa10∆
  protein stability index: 3.12 ± 0.096
pdr5∆
  protein stability index: 3.33 ± 0.12
san1∆
  protein stability index: 3.17 ± 0.11
ubr1∆
  protein stability index: 2.98 ± 0.11

## GPAAAIEFEYDPWNKLK [RPB3]
doa10∆
  protein stability index: 3.04 ± 0.081
pdr5∆
  protein stability index: 3.08 ± 0.078
san1∆
  protein stability index: 3.05 ± 0.052
ubr1∆
  protein stability index: 3.25 ± 0.065

## AYNKKSTISAREIQTAV [HTB1]
doa10∆
  protein stability index: 2.5 ± 0.1
pdr5∆
  protein stability index: 3.03 ± 0.089
san1∆
  protein stability index: 2.98 ± 0.12
ubr1∆
  protein stability index: 2.92 ± 0.13

## LRPGRIDRKVEFSLPDL [RPT1]
doa10∆
  protein stability index: 3.19 ± 0.098
pdr5∆
  protein stability index: 3.35 ± 0.098
san1∆
  protein stability index: 3.2 ± 0.16
ubr1∆
  protein stability index: 3.18 ± 0.098

## NVNKKALGQDTEKMEEQ [MED11]
doa10∆
  protein stability index: 2.88 ± 0.059
pdr5∆
  protein stability index: 2.94 ± 0.055
san1∆
  protein stability index: 2.88 ± 0.034
ubr1∆
  protein stability index: 3.04 ± 0.05

## GPSVESYELRNTTTYKS [SNF5]
doa10∆
  protein stability index: 2.75 ± 0.1
pdr5∆
  protein stability index: 2.9 ± 0.099
san1∆
  protein stability index: 2.41 ± 0.094
ubr1∆
  protein stability index: 1.99 ± 0.082

## LLTKNVSCYRPRRDGER [RPS6A]
doa10∆
  protein stability index: 1.24 ± 0.22
pdr5∆
  protein stability index: 2.8 ± 0.12
san1∆
  protein stability index: 3.19 ± 0.085
ubr1∆
  protein stability index: 3.4 ± 0.096

## FDFLMNMPNCDYLTLNK [RPN2]
doa10∆
  protein stability index: 2.76 ± 0.054
pdr5∆
  protein stability index: 2.31 ± 0.068
san1∆
  protein stability index: 2.07 ± 0.076
ubr1∆
  protein stability index: 1.74 ± 0.039

## ETLVLSYFSPINSSNEA [YCG1]
doa10∆
  protein stability index: 2.67 ± 0.096
pdr5∆
  protein stability index: 1.55 ± 0.087
san1∆
  protein stability index: 1.25 ± 0.19
ubr1∆
  protein stability index: 2.13 ± 0.055

## ENEFVVLLDARDIEKIT [CDC53]
pdr5∆
  protein stability index: 2.98 ± 0.17
ubr1∆
  protein stability index: 3.08 ± 0.14

## QLNASISLIPELSVVLS [RRI2]
doa10∆
  protein stability index: 2.67 ± 0.064
pdr5∆
  protein stability index: 2.96 ± 0.06
san1∆
  protein stability index: 2.98 ± 0.044
ubr1∆
  protein stability index: 2.73 ± 0.039

## EFIYLTKVLQFAAKQRQ [SNF2]
doa10∆
  protein stability index: 1.33 ± 0.19
pdr5∆
  protein stability index: 1.28 ± 0.15
san1∆
  protein stability index: 1.39 ± 0.15

## KSLEVVNADTVGKTVKQ [NSL1]
doa10∆
  protein stability index: 3.13 ± 0.059
pdr5∆
  protein stability index: 2.99 ± 0.049
san1∆
  protein stability index: 2.77 ± 0.051
ubr1∆
  protein stability index: 3.08 ± 0.047

## NCFFDVIVPQIVLDEVR [DIS3]
doa10∆
  protein stability index: 1.62 ± 0.12
pdr5∆
  protein stability index: 1.55 ± 0.17
ubr1∆
  protein stability index: 1.47 ± 0.12

## TINEMMKHLGRSEGNPV [FAS2]
doa10∆
  protein stability index: 2.5 ± 0.09
pdr5∆
  protein stability index: 2.76 ± 0.064
san1∆
  protein stability index: 2.53 ± 0.066
ubr1∆
  protein stability index: 2.94 ± 0.072

## QQQSSQNTVPNVLNQIN [GAL11]
doa10∆
  protein stability index: 1.66 ± 0.063
pdr5∆
  protein stability index: 1.82 ± 0.053
san1∆
  protein stability index: 1.71 ± 0.078
ubr1∆
  protein stability index: 2.01 ± 0.042

## QAHEIVIPSYSKWFNLE [SWI3]
doa10∆
  protein stability index: 1.84 ± 0.052
pdr5∆
  protein stability index: 1.82 ± 0.051
san1∆
  protein stability index: 1.81 ± 0.071
ubr1∆
  protein stability index: 1.66 ± 0.038

## KTGITKKDEDEEADEDM [PRE9]
doa10∆
  protein stability index: 3.37 ± 0.13
pdr5∆
  protein stability index: 3.7 ± 0.26
san1∆
  protein stability index: 3.5 ± 0.11
ubr1∆
  protein stability index: 2.95 ± 0.23

## EINSVGNPGLPQYQYQR [ITC1]
doa10∆
  protein stability index: 2.66 ± 0.11
pdr5∆
  protein stability index: 2.59 ± 0.077
san1∆
  protein stability index: 2.92 ± 0.057
ubr1∆
  protein stability index: 3.16 ± 0.067

## QFVSKLVDNLNAEVVAG [BRR2]
doa10∆
  protein stability index: 2.25 ± 0.042
pdr5∆
  protein stability index: 2.25 ± 0.049
san1∆
  protein stability index: 2.22 ± 0.05
ubr1∆
  protein stability index: 2.19 ± 0.041

## SVFYNIANMVLPPEKIY [SIR2]
doa10∆
  protein stability index: 1.78 ± 0.048
pdr5∆
  protein stability index: 1.77 ± 0.043
san1∆
  protein stability index: 1.81 ± 0.06
ubr1∆
  protein stability index: 1.55 ± 0.04

## LANNVESKLRDDLERLK [RPS18A]
doa10∆
  protein stability index: 3.45 ± 0.16
pdr5∆
  protein stability index: 3.27 ± 0.16
san1∆
  protein stability index: 2.97 ± 0.24
ubr1∆
  protein stability index: 3.41 ± 0.049

## LLEGLNEKIEKRSDLTG [UBP6]
doa10∆
  protein stability index: 2.89 ± 0.092
pdr5∆
  protein stability index: 3.11 ± 0.063
san1∆
  protein stability index: 3.18 ± 0.081
ubr1∆
  protein stability index: 3.32 ± 0.098

## AEDDVIIPQDILDCVVT [YJR042W/NUP85]
doa10∆
  protein stability index: 3.18 ± 0.1
pdr5∆
  protein stability index: 3.04 ± 0.065
san1∆
  protein stability index: 3.36 ± 0.04
ubr1∆
  protein stability index: 2.94 ± 0.07

## NTEKDYKMVQEQLSKQR [SMC2]
doa10∆
  protein stability index: 3.27 ± 0.065
pdr5∆
  protein stability index: 3.17 ± 0.072
san1∆
  protein stability index: 3.25 ± 0.045
ubr1∆
  protein stability index: 3.23 ± 0.043

## FEQDSHLRYQPDGVVVH [SNF6]
doa10∆
  protein stability index: 3.09 ± 0.087
pdr5∆
  protein stability index: 3.1 ± 0.078
san1∆
  protein stability index: 3.07 ± 0.046
ubr1∆
  protein stability index: 3.09 ± 0.061

## KNIHISKRSKIDIINKL [YML103C/NUP188]
doa10∆
  protein stability index: 1.34 ± 0.17
ubr1∆
  protein stability index: 1.49 ± 0.14
